B1: Dipeptidyl peptidase 4 (Homo sapiens), P27487 (parent)
chain: MKTPWKVLLGLLGAAALVTIITVPVVLLNKGTDDATADSRKTYTLTDYLKNTYRLKLYSLRWISDHEYLYKQENNILVFNAEYGNSSVFLENSTFDEFGHSINDYSISPDGQFILLEYNYVKQWRHSYTASYDIYDLNKRQLITEERIPNNTQWVTWSPVGHKLAYVWNNDIYVKIEPNLPSYRITWTGKEDIIYNGITDWVYEEEVFSAYSALWWSPNGTFLAYAQFNDTEVPLIEYSFYSDESLQYPKTVRVPYPKAGAVNPTVKFFVVNTDSLSSVTNATSIQITAPASMLIGDHYLCDVTWATQERISLQWLRRIQNYSVMDICDYDESSGRWNCLVARQHIEMSTTGWVGRFRPSEPHFTLDGNSFYKIISNEEGYRHICYFQIDKKDCTFITKGTWEVIGIEALTSDYLYYISNEYKGMPGGRNLYKIQLSDYTKVTCLSCELNPERCQYYSVSFSKEAKYYQLRCSGPGLPLYTLHSSVNDKGLRVLEDNSALDKMLQNVQMPSKKLDFIILNETKFWYQMILPPHFDKSKKYPLLLDVYAGPCSQKADTVFRLNWATYLASTENIIVASFDGRGSGYQGDKIMHAINRRLGTFEVEDQIEAARQFSKMGFVDNKRIAIWGWSYGGYVTSMVLGSGSGVFKCGIAVAPVSRWEYYDSVYTERYMGLPTPEDNLDHYRNSTVMSRAENFKQVEYLLIHGTADDNVHFQQSAQISKALVDVGVDFQAMWYTDEDHGIASSTAHQHIYTHMSHFIKQCFSLP

Variants of: B1
Conditions: with spike_mers1 S

Variant | effect of a mutation on the interaction
K267A | disrupting interaction strength
K267E | disrupting interaction strength
L294D;I295D | disrupting interaction strength
Q344A | with no effect
R336A | decreasing interaction strength
L294A;I295A | disrupting interaction strength
R317A | decreasing interaction strength

From IntAct's records for PubMed 25461530
